No end group written: not given here.
B1: RP9 (peptide)
peptide: GSLDESFYDWFERQLG
notes: Formula 1, Site 1 peptide; also called H2C-PD1-IGFR
B2: G33 (peptide)
peptide: GIISQSCPESFYDWFAGQVSDPWWCW
notes: Formula 1, Site 1 peptide; also called H2CA-4-G9-IGFR; S326

target: T1, soluble human insulin receptor-immunoglobulin heavy chain chimera (human, UniProt P06213 28-956); assay: phage ELISA ratios compared
T1 construct: extracellular domain; Heterotetramer; also called IR; sIR-Fc; not shown: immunoglobulin heavy chain constant domains replacing the transmembrane and intr

Row | IR/IGF-1R ratio comparison | Binder
1 | 0.1 | IWATGDFYRLLSQLVMGRVGT [20E2B-2-B8-IGFR]
2 | 0.1 | EGSGFYGYFFSLLGLQG [NNRPγ-4-A9-IR]
3 | 0.2 | RGKTAAVIVGRPADPFYHKLSELLQGG [B6Hα-3-E8-IR]
4 | 0.1 | RQGTGSFYLMLEQLLVGARGP [20E2B-4-G11-IGFR]
5 | 0.1 | DRAFYNGLRDLVGAVYGAWD [R20α-4-20C11-IR]
6 | 0.1 | ICTGQGFYQVLCGLLRGTSAR [20E2B-2-B3-IGFR]
7 | 0.2 | TLRSPTFYDWLEMVLTHGQGG [20E2B-1-A8-IGFR]
8 | 0.1 | AQPCGGFYGLLEQLVGRSVCD [20E2B-4-F10-IGFR]
9 | 0.3 | AETSVQVGWIRLQSVWPGEHWNTVDPFYHKLSELLRGSGA [B6L-4-D7-IR]
10 | 0.2 | AVRATRFDEAFYDWFVRQISDGQGNK [H2CA-4-F6-IGFR]
11 | 0.2 | RFDPFYSYFVNLLGASA [NNRPγ-4-A7-IR]
12 | 0.3 | LSVALSFYDALGQLVAGEGRW [20E2A-3-A12-IGFR]
13 | 0.1 | NSRDGGFYLQLERLLGFPVTG [20E2B-3-D4-IGFR]
14 | 0.2 | PAGPCGFYCGLGLLLHGDQSP [20E2B-4-H8-IGFR]
15 | 0.1 | IQQELTFYDLLHRLVRSELGS [20E2B-3-D2-IGFR]
16 | 0.1 | VGYQGQGDENFYDWFIRQVSGRLGVQ [H2CA-4-F5-IGFR]
17 | 0.2 | ASSASGFYELLQRLAGLGLEV [20E2B-3-C4-IGFR]
18 | 0.1 | GIISQSCPESFYDWFAGQVSDPWWCW [H2CA-4-G9-IGFR]

Row | IR/IGF-1R ratio comparison | Binder
19 | 0.2 | GCAVVEEAERSRGDPFYHKLSELIQGC [B6Hα-3-E7-IR]
20 | 0.3 | SRAKVEAEMPDSGDPFYHKLSELLASG [B6Hα-1-A3-IR]
21 | 0.2 | VGTVAGFYDAIAQLVARASRV [20E2A-3-C7-IGFR]
22 | 0.2 | FFYRCLSRLLGGQLGSRLGLSCIGD [20C-3-E4-IGFR]
23 | 0.1 | SAAQLFFQESFYDWFLRQVAESSQPN [H2CA-4-F11-IGFR]
24 | 0.1 | VGRASGFPENFYDWFGRQLSLQSGEQ [H2CA-4-H6-IGFR]
25 | 0.1 | RFSTDGFYQYLLALVGGGPVG [20E2B-1-A11-IGFR]
26 | 0.1 | YSCGDGFYSLLSDLLGGQFRC [20E2B-4-H12-IGFR]
27 | 0.2 | RCQGTGFYTCIQELIGFGDPD [20E2B-4-H9-IGFR]
28 | 0.2 | SGAKVIVVTGDSGDPFYHKLSELLQGS [B6Hα-2-C10-IR]
29 | 0.1 | LSSDGQFYRALNLLLQGSAGR [20E2B-2-B7-IGFR]
30 | 0.1 | PVGVQGFYEGLSRLVLGRGGW [20E2B-4-F8-IGFR]
31 | 0.1 | PGTDLGFYQALRCVVIQGACD [20E2B-2-B2-IGFR]
32 | 0.1 | SACQFDCHENFYDWFARQVSGGAAYG [H2CA-4-H8-IGFR]
33 | 0.1 | QGNVLDFYGWIGRLLAKQGSD [20E2B-3-D12-IGFR]
34 | 0.1 | DSVGDNFYQLLESLVGGHGVG [20E2B-3-D6-IGFR]
35 | 0.1 | QFYGCLLDLSLGVPSFGWRRRCITA [20C-3-A4-IGFR]
36 | 0.1 | VATSQGFYSGLSELLQGGGNV [20E2B-3-E12-IGFR]

target: T2, Soluble IGF-1R (R&D Systems, Cat. # 391-GR) (UniProt P08069 31-935, limits assumed); assay: phage ELISA ratios compared
T2 construct: extracellular domain; bought; also called sIGF-1R

Row | IGF-1R/IR ratio comparison | Binder
37 | 7.2 | IWATGDFYRLLSQLVMGRVGT [20E2B-2-B8-IGFR]
38 | 7.1 | EGSGFYGYFFSLLGLQG [NNRPγ-4-A9-IR]
39 | 4.8 | RGKTAAVIVGRPADPFYHKLSELLQGG [B6Hα-3-E8-IR]
40 | 7 | RQGTGSFYLMLEQLLVGARGP [20E2B-4-G11-IGFR]
41 | 10.3 | DRAFYNGLRDLVGAVYGAWD [R20α-4-20C11-IR]
42 | 7.4 | ICTGQGFYQVLCGLLRGTSAR [20E2B-2-B3-IGFR]
43 | 5 | TLRSPTFYDWLEMVLTHGQGG [20E2B-1-A8-IGFR]
44 | 7.8 | AQPCGGFYGLLEQLVGRSVCD [20E2B-4-F10-IGFR]
45 | 3.4 | AETSVQVGWIRLQSVWPGEHWNTVDPFYHKLSELLRGSGA [B6L-4-D7-IR]
46 | 6.4 | AVRATRFDEAFYDWFVRQISDGQGNK [H2CA-4-F6-IGFR]
47 | 4.9 | RFDPFYSYFVNLLGASA [NNRPγ-4-A7-IR]
48 | 3.9 | LSVALSFYDALGQLVAGEGRW [20E2A-3-A12-IGFR]
49 | 9.6 | NSRDGGFYLQLERLLGFPVTG [20E2B-3-D4-IGFR]
50 | 5.9 | PAGPCGFYCGLGLLLHGDQSP [20E2B-4-H8-IGFR]
51 | 11.7 | IQQELTFYDLLHRLVRSELGS [20E2B-3-D2-IGFR]
52 | 12.3 | VGYQGQGDENFYDWFIRQVSGRLGVQ [H2CA-4-F5-IGFR]
53 | 6.2 | ASSASGFYELLQRLAGLGLEV [20E2B-3-C4-IGFR]
54 | 16 | GIISQSCPESFYDWFAGQVSDPWWCW [H2CA-4-G9-IGFR]

Row | IGF-1R/IR ratio comparison | Binder
55 | 4.3 | GCAVVEEAERSRGDPFYHKLSELIQGC [B6Hα-3-E7-IR]
56 | 3.3 | SRAKVEAEMPDSGDPFYHKLSELLASG [B6Hα-1-A3-IR]
57 | 5.1 | VGTVAGFYDAIAQLVARASRV [20E2A-3-C7-IGFR]
58 | 6 | FFYRCLSRLLGGQLGSRLGLSCIGD [20C-3-E4-IGFR]
59 | 6.7 | SAAQLFFQESFYDWFLRQVAESSQPN [H2CA-4-F11-IGFR]
60 | 14.6 | VGRASGFPENFYDWFGRQLSLQSGEQ [H2CA-4-H6-IGFR]
61 | 9.7 | RFSTDGFYQYLLALVGGGPVG [20E2B-1-A11-IGFR]
62 | 12.8 | YSCGDGFYSLLSDLLGGQFRC [20E2B-4-H12-IGFR]
63 | 5.6 | RCQGTGFYTCIQELIGFGDPD [20E2B-4-H9-IGFR]
64 | 5.3 | SGAKVIVVTGDSGDPFYHKLSELLQGS [B6Hα-2-C10-IR]
65 | 6.7 | LSSDGQFYRALNLLLQGSAGR [20E2B-2-B7-IGFR]
66 | 9.7 | PVGVQGFYEGLSRLVLGRGGW [20E2B-4-F8-IGFR]
67 | 8.1 | PGTDLGFYQALRCVVIQGACD [20E2B-2-B2-IGFR]
68 | 9.4 | SACQFDCHENFYDWFARQVSGGAAYG [H2CA-4-H8-IGFR]
69 | 7.3 | QGNVLDFYGWIGRLLAKQGSD [20E2B-3-D12-IGFR]
70 | 6.9 | DSVGDNFYQLLESLVGGHGVG [20E2B-3-D6-IGFR]
71 | 7.6 | QFYGCLLDLSLGVPSFGWRRRCITA [20C-3-A4-IGFR]
72 | 7.3 | VATSQGFYSGLSELLQGGGNV [20E2B-3-E12-IGFR]

target: T3, human insulin receptor (HIR) (human, UniProt P06213 28-1382, limits assumed); assay: 125I-insulin competition, solubilized HIR
T3 construct: solubilized receptor from transfected cells

Row | Kd [nM] | Binder
73 | 700 | CGFHENFYDWFVRQVSKK (also: N-N dimer, two chains linked at Cys1, N-N dimer) [S170]
74 | 180 | XGSLDESFYDWFERQLGKK (not fully specified; N-terminal Ald, linker 17, N-N dimer) [S374]
75 | 110 | XGSLDESFYDWFERQLGKK (not fully specified; N-terminal Lig′, linker 24, N-N dimer) [S362]
76 | 50 | DWLQRNANFYDWFVAEL (not fully specified; C-terminal Lig′, linker 14) [S300]
77 | 120 | EEDWLQRNANFYDWFVAELX (C-terminal Lig′ (printed LiG′), linker 23, C-C dimer) [S381]
78 | 2200 | GSLDESFYDWFERQLGKKX (not fully specified; C-terminal Lig′, linker 24, C-C dimer) [S361]
79 | 160 | XGSLDESFYDWFERQLGKK (N-terminal Ald, linker 19, N-N dimer) [S376]

target: T4, soluble human insulin receptor-immunoglobulin heavy chain chimera (human, UniProt P06213 28-956, limits assumed); assay: ratio of IC50 on rhIGF-1R (TR-FRET vs b-20E2) to IC50 on sIR-Fc (FP vs FITC-RP9)
T4 construct: extracellular domain; also called sIR-Fc; slR-Fc; not shown: immunoglobulin heavy chain constant domains

Row | Binding Ratio IGF-1R/IR | Binder
80 | 1.9 | DYKDFYDAIDQLVRGSARAGGTRD (Formula 2, Site 1 peptide) [20E2 (D118)]
81 | 25 | SQAGSAFYAWFDQVLRTV (Formula 1, Site 1 peptide) [RP15]
82 | 1.4 | B1
83 | 476 | PPWGARFYDAIEQLVFDNL (Formula 2, Site 1 peptide) [RP4]
84 | 0.15 | VMDARDDPFYHKLSELVT [RP16]
85 | 1.3 | B2
86 | 9 | FHENFYDWFVQRVSKK (Formula 1, Site 1 peptide) [H2C (D117)]

— patent US6875741 (Novo Nordisk, dated 2005)
